Laboratory results taken from the DeepSol protein solubility set.

test: soluble on expression in E. coli; label from the status in PepcDB or PDB records

Row | Sequence | soluble on expression in E. coli
1 | MGSDKIHHHHHHMEKGEPIVVVKEISKSYGKVEALKEVSFAVEQGEVFGLIGPDGAGKSTLFRILTTLLLADKGTATVNGLDVVTDYKQIRTKVGYMPGRFSLYQDLSVEENLEFFATVFHTLIQENYDLIKDIYQQIEPFKKRRAGALSGGMKQKLALSCSLIHKPDILFLDEPTTGVDPVSRKEFWQMLRNLRKQGITIIVSTPIMDEARQCDRIAFINHGQVHGIDTPERILQKFASILCPPPLEREEAQQMAAPVIEVEQLTKSFGHFTAVDHISFQVQRGEIFGFLGANGAGKTTAMRMLCGLSRPTSGVGKVAGYDIFREAEQVKRHIGYMSQKFSLYEDLKVWENIRLFAGIYGMKEMEIEEKTDELLERLGFADERDTLVKNLPLGWKQKLAFSVSIFHEPKIVFLDEPTGGVDPATRRQFWELIYQAADRGITVFVTTHYMDEAEYCNRISIMVDGQIKALDTPARLKEQFGVETMDDVFQQLARHAVRKAD | not soluble
2 | MSLKSIAKAQNDFTIFKFGDSEIRVINKCGEPWFVAKDVCDALALTNSRKALTALDDDEKGVTLSYTLGGEQNLSIVSESGMYTLVLRCRDAVNKGSVPHKFRKWVTAEVLPSIRKHGEYVKGKKTTVEERTPLRDAVNMLVGKKGLRNDDAYNMVHQRFGIDSIDELSIEQIPLAVEYIHRVVLEGEFIGKQEKSTNELSAKEANSLVWLWDYANRSQALFRELYPALKQIQSNYSGRCYDYGHEFSYVIGMARDVLINHTRDVDINEPDGPTNLSAWMRLKNKELPPSPHHYEGHHHHHH | not soluble
3 | MGHHHHHHSHMASETHNVKKRNFCNKIEDHFIDLPRKKISNFTNKNMKEVKKSPKQLAAYINRTVGQTVKSPDKLRKVIYRRKKVHHPFPNPCYRKKQSPGSGGCDMANKENELACAGHLPEKLHHDSRTYLVNSSDSGSSQTESPSSKYSGFFSEVSQDHETMAQVLFSRNMRLNVALTFWRKRSISELVAYLLRIEDLGVVVDCLPVLTNCLQEEKQYISLGCCVDLLPLVKSLLKSKFEEYVIVGLNWLQAVIKRWWSELSSKTEIINDGNIQILKQQLSGLWEQENHLTLVPGYTGNIAKDVDAYLLQLH | not soluble
4 | MGSDKIHHHHHHMEEGSAGMGMSQNNSTLVAPQPKGIIDPATGKPVGSNDAYFTEINDELADKGFLVTSTDELITWARTGSLMWMQFGLACCAVEGLMQASGPRYDMERFGVAPRASPRQSDVMIVAGTLTNKMAPALRKVYDQMPEPRYVISMGSCANGGGYYHYSYAVVRGCDRVVPVDIYVPGCPPTAEALLYGVLLLQKKIRRTGTIER | not soluble
5 | DRLGQPPSGYGVLLSVHEDKTVDVFTSGRKMRLTCSPNIDTDTLALGQTVRLNEALTIVEAGTYEQVGEISTLREVLDDGLRALVVGHADEERIVWLAAPLAAVFADPEADIIAYDADSPTRKLRPGDSLLVDTKAGYAFERIPKAEVEDLVL | soluble
6 | MGSDKIHHHHHHMTPDQYCQEKAVQSGSSFYYSFLYLPPERRRAITALYAFCREVDDVVDECTEASVARVKLAWWRQEVAAIFDAGGNKPSHPVAQALAGVASTFNLTADRLNEIIDGMEMDLDYNRYADFDTLRHYCYHVASVVGLCSAEIFGYRNPKTLEYAQDLGLAFQLTNIIRDVGEDARRDRIYLPQDELARFGVSNEDILQSRETDNFRRLIEFQIDRAESYYANAFAALPEEDRKSQRSGIIMAAIYQALLKEIKADGCHVMRQRISLTPLRKLWIAWKTWMKG | not soluble
7 | MAQAEEINVATVNNGDMIIMQKLSSAWEKETGNKINWIVLEENVLRERVTTDIATNGGQFDIMTIGGYEAPIWGKQGWLAPVDDLGDDYDYADLLDPIKKGLTVDGKLYAVPFYTESSFTLYRKDLFDAAGLKMPDNPTYDQIKDFAAKLTDKSKQQYGICLRGKPGWGENMAFLGTMINTYGGRWFDMDWKPQLTSAPWKKAIADYVALMTSYGPPGAAANGFNENQTLFSSGRCAMWIDATSAAGRVYDPKQSQVADKTGFTRAPVEVTPNGSSWSWSWNLAIPNSTKKLETAKSFVKWATSKAYVKTVGESEGWVAVPPGTRKSTYELPEYKKAAPFADTVLKAIMSADPSKPTKDPVPYTGVQFVAIPEFQSIGTVVGQQIAAALSGQQTVDAALEGAQKQVERDMTRAGYIK | not soluble
8 | MQKRHTNRERYFEEQAQTTRNYYIPYIKEYTGNLPNKVLEVGCGEGGNLLPFAELGCDVIGIDIAASRIEQAQNFFITKRQKGTFIASDIFLLKDLQKHFPLILIHDVIEHIDNKEQFLRNLKKYLSPNGMIFIAFPAWQMPFGGHQQIARSKIISHMPFIHLLPRMLYKRILELFSEQESTVKELLTIKYTRCTIEMFRRVVKQTDYQIVNEQLYFINPHYKIKFGLTPHKLNKTIACIPFIRNVFSTSCFYLIRPT | not soluble
9 | AHHHHHHGSERAFIEWYPRGYGVAFKIKKKIYEKLSKYQKIEVYETEGFGRLLALDGTVQLVTLGERSYHEPLVHPAMLAHPKPKRVLVIGGGDGGTVREVLQHDVDEVIMVEIDEDVIMVSKDLIKIDNGLLEAMLNGKHEKAKLTIGDGFEFIKNNRGFDVIIADSTDPVGPAKVLFSEEFYRYVYDALNNPGIYVTQAGSVYLFTDELISAYKEMKKVFDRVYYYSFPVIGYASPWAFLVGVKGDIDFTKIDRERAKKLQLEYYDPLMHETLFQMPKYIRETLQRL | soluble
10 | GPGSMLEEVLKCYEEMKDPAAHQLAEAALPKLMEALGEESENSVMEVMLRCIGRCVSVHPAIMSPTNTALVCDKVMAALEVVVKRRNECLQKKATENDEDELDALEVEDEEVHLTISSMCDLIGTLLAASKEVFAAPFLEKAFPVLGEWLQASTDDFYMTRAAGILSDFVTHAPQSIVPSLPQICASSLTIASSSSDDGLLQSDFYLMNVIVQLLGSHATTNMGVDGGEYAVHVQQVAEKYFSSNLVNQEEYTHCTCNVISLYVSLLNFYGTTVLQQAATSMLTVVGKALPAKDDEIEARRIHDVVLGWVTNNHPVLQALPGSTAGFLTCVKAASPNCLSEQAKQYLASM | soluble
11 | MSDEIVTNKSVTYVNNTTPVTITSSELDLRSCYQDDEVVIEVHAAALNPIDFITHQLCNSYIFGKYPKTYSRDYSGVIIKAGKDVDNRWKVGDKVNGMYSHIYGERGTLTHYLILNPAKDVPITHMVEVPKDENDPYDDFVYAAAWPLTFGTAFSTLYDFKKDWTSDSKVLVIGASTSVSYAFVHIAKNYFNIGTVVGICSKNSIERNKKLGYDYLVPYDEGSIVENVKKLKQSVLENDKFDMIFDSVGNHDFFPVIDQFLKPKAKNSFYVTIAGNNKADYKNISWRDFVSLSSILKAINPFKKYNWRFGHPYPPNNFIEVGNEMIKKGTYKPPIDSVYEFDQYKEAIDRLMSNRAKGKVVVKMK | soluble
12 | MSEEGFMLAVLKGIPLIQDIRAEGNSRSWIMTIDGHPARGEIFSEAFSISLFLNDLESLPKPCLAYVTLLLAAHPDVHDYAIQLTADGGWLNGYYTTSSSSELIAIEIEKHLALTCILKNVIRNHHKLYSGGV | not soluble
13 | MGSDKIHHHHHHMSLLINLSFAPLQPTGWLTYSLNLLPHIKYLGVNVLSPREIPEVKVYQSPTNITTECGIKGHFQRLMWVQFKLPSFYKKLKSQLLFSPIPEVPLFSRCRSIVTIHDLIPLRFPQEFSAAQLFYCRNYLPAVIKQSEHIICNSLSTAHDIQNFLGVPEKKITITSLAIDTENFKFLDLPKKNYFLYYGRHNIYKNLNRIIAAFAALPNKDYELWLAGPNDARYTPTLQAQVEELGITHRVKFLDYVSYSELPVIINQAIALVFPSLWEGFGFPVLEALACGTPVITSNLSSLPEVAGDAAILINPYNTAEITDAMQNIANDVKLQSHLSTQGIARANQFSWERTGKATSEVLSRYL | not soluble
14 | MSLNKSTVDYQNAKILMDNFYSSREININGDNVTIVINDIMYIPSIDELEIKNGDKNLIIKFDRDGNKVKYKDIECIEYLNLKKGEEISLFNKSYIVEDITSNYVILKEKDGKEVLTNESFEYDGYKVVVKLVSSDLNTIIVDIYKNEKVLDSPKLTKGKIYYMKGGTLGLMYENCTRIGKGYRFTFRVYSTIKIEEGEDYPLDKEFKVKEISTDKIKLEYKNIDSLGNEIYLFNYTIIPEKCYKDYVLFKVIKRKEKTVDVKDVAYIGDGIYAVKVNNTVHVFYKGKELKNHEKIYLGSVDVYSSNPLNVNKDIILIGGPKVNKIVKELEDKGLLKVNISTNYPGNNRGIILKIKNPYNDNNIYILAGSDRWGTKAAILVFLTKYNDEDTLMVEWDKGEIKIIKEGHHHHHH | soluble
15 | MGSDKIHHHHHHMSKIILVVAAHTDDEAMGCGGTIARHIAEGDEVHLLFMTDGVGSREVLAEEVIDRSSAAQQAAKILGVSSFTNLSFPDNRMDSVALLDIVKEVEVKISEIKPEIIYTHHIGDLNIDHQVTHKAVMTACRPQPGFSVKTIYAFEVLSSTEWQTSNSALFIPNVFIDITDYLPVKMDASKAYYNEMREVPHSRSLQHIELLARHRGYTVGVHAAEAFMLVREIK | not soluble
16 | MKIDILTLFPDMFTGVFGSSILKKAQEKEAVELRVVNFRDYTTSKHNSVDDYPYGGGAGMVLTPQPIFDAVEDLTKETERKPRVVLMCPQGERFTQKKAEELAEEEHLIFVCGHYEGYDERIREHLVTDEISIGDYVLTGGELASMVITDSVVRLLPGVLGNHASQVEDSFSTGLLEHPHYTRPADFRGMKVPDVLMSGNHKNIDEWRHKESLRRTYTRRPDLLEERELSKQEKKWLEQIKEGK | not soluble
17 | MDNTEDVIKEFMQFKVRMEGSVNGHYFEIEGEGEGKPYEGTQTAKLQVTKGGPLPFAWDILSPQFQYGSKAYVKHPADIPDYMKLSFPEGFTWERSMNFEDGGVVEVQQDSSLQDGTFIYKVKFKGVNFPADGPVMQKKTAGWEPSTEKLYPQDGVLKGEISHALKLKDGGHYTCDFKTVYKAKKPVQLPGNHYVDSKLDITNHNEDYTVVEQYEHAEARHSGSQ | soluble
18 | SAQAQRVQDAIQHWESHHPKEVAARSTRLAELKQALAEQGAVVRTLQPKVTTTSPQAMLKQAMPALQKMETYACTDGLTFVGKHSSHRRQVEERLDSFGGSQSRKAANKQANDMSNMAAIAAKRGNVSLNQLKSIAACVAQAQAGCCTTFAYSAAAELMKHNQDNQQRIEVVAHRGAKGHSQTHCFVVVGRDPNSELSKPETWGKQAHVIDPWAATIGGRLQGTPSNPPIANLWPPTESV | not soluble
19 | MGSDKIHHHHHHMNEADVTKFVNNARKTLTDAQLLCSSANLRIVDIKKKLSSWQLSISKLNFLIVGLRQQGKFLYTILKEGIGTKLIQKQWNQAVLVVLVDEMKYWQYEITSKVQRLDGIVNELSISEKDDTDPSKLGDYISRDNVNLLNDKLKEVPVIERQIENIKLQYENMVRKVNKELIDTKLTDVTQKFQSKFGIDNLMETNVAEQFSRELTDLEKDLAEIMNSLTQHFDKTLLLQDKKIDNDEREELFKVVQGDDKELYNIFKTLHEVIDDVDKTILNLGQFLQAKIKEKTELHSEVSEIINDFNRNLEYLLIFKDISNLIDSFKNSCTQDIQTTKELCEFYDNFEESYGNLVLEAKRRKDVANRMKTILKDCEKQLQNLDAQDQEERQNFIAENGTYLPETIWPGKIDDFSSLYTLNYNVKNP | not soluble
20 | MSLDEKLRTSGVQVIGDIAWGTHFCQFYRTQEELVNVVCPYLKAGLEGNELCIWALPRDFETKKEAEGPLRRTIPKLDIYLEKGQMEIISYKDRYAEKEIPDSKKALENLIKKADYALLNGYSGLRLVQDTSWLKNDWKNLTGYEEELDIAIENRRITALCTYSSGKFDTDETIYAALSHRFVLVKKEGNWEKVENPRLKKAEERVIQPSEEVETKTEEENENLKKLLEERTVELTEAYKSLKVNEKQFLQIRKMTHIGNWKWDILTGELHWSDEVYRIFGRDPERFKATCDAFLGSVHPDDREYLINSIKKDFDEQIRNIDYRIVLPDGEERTVRTRVEITFDEENQPVRAEGIVQDITELKRIEKALQEREEQYRAFFENSMDAVLFASPDGTIHAANKAACKTFGMTEKEIIRAGRNGIVDQSDPRLKPSLEERNSTGRFKGEINHKRKDGTIFPGEVSTALFKDKNGLMKIVIIIRDITERKKAEEVLRKSEEHYRMLFTNEGHHHHHH | soluble
